Work on “Anthrax lethal factor (Product #169, List Biological Laboratories, Inc)” yielded a Peak area Average, 2 hour digest, LF 5 pg/ml plasma (LBL 10081) of 9150 peak area, a Peak area Average, 2 hour digest, LF 10 pg/ml plasma (LBL 10081) of 10300 peak area and a Peak area Average, 2 hour digest, LF 20 pg/ml plasma (LBL 10081) of 15900 peak area. For the same substance, the Peak area Average, 2 hour digest, LF 50 pg/ml plasma (LBL 10081) was 33700 peak area, the Peak area Average, 3.5 hour digest, LF 5 pg/ml plasma (LBL 10081) was 12300 peak area and the Peak area Average, 3.5 hour digest, LF 10 pg/ml plasma (LBL 10081) was 15900 peak area. For the same substance, the Peak area Average, 3.5 hour digest, LF 20 pg/ml plasma (LBL 10081) was 24200 peak area, the Peak area Average, 3.5 hour digest, LF 50 pg/ml plasma (LBL 10081) was 49100 peak area and the Peak area Average, 5 hour digest, LF 5 pg/ml plasma (LBL 10081) was 15000 peak area. The Peak area Average, 5 hour digest, LF 10 pg/ml plasma (LBL 10081) was 22300 peak area, the Peak area Average, 5 hour digest, LF 20 pg/ml plasma (LBL 10081) was 32900 peak area and the Peak area Average, 5 hour digest, LF 50 pg/ml plasma (LBL 10081) was 66700 peak area. The Peak area Average, overnight digest (RT), LF 5 pg/ml plasma (LBL 10081) was 26900 peak area, the Peak area Average, overnight digest (RT), LF 10 pg/ml plasma (LBL 10081) was 36200 peak area and the Peak area Average, overnight digest (RT), LF 20 pg/ml plasma (LBL 10081) was 57900 peak area. It also gave a Peak area Average, overnight digest (RT), LF 50 pg/ml plasma (LBL 10081) of 130000 peak area, a Peak area, 2 hour digest, LF 5 pg/ml plasma, rep 1 (LBL 10081) of 9410 peak area and a Peak area, 2 hour digest, LF 5 pg/ml plasma, rep 2 (LBL 10081) of 8890 peak area. For the same substance, the Peak area, 2 hour digest, LF 10 pg/ml plasma, rep 1 (LBL 10081) was 10700 peak area, the Peak area, 2 hour digest, LF 10 pg/ml plasma, rep 2 (LBL 10081) was 9970 peak area and the Peak area, 2 hour digest, LF 20 pg/ml plasma, rep 1 (LBL 10081) was 16900 peak area. The Peak area, 2 hour digest, LF 20 pg/ml plasma, rep 2 (LBL 10081) was 14900 peak area, the Peak area, 2 hour digest, LF 50 pg/ml plasma, rep 1 (LBL 10081) was 33700 peak area and the Peak area, 2 hour digest, LF 50 pg/ml plasma, rep 2 (LBL 10081) was 33700 peak area. It also gave a Peak area, 3.5 hour digest, LF 5 pg/ml plasma, rep 1 (LBL 10081) of 11500 peak area, a Peak area, 3.5 hour digest, LF 5 pg/ml plasma, rep 2 (LBL 10081) of 13200 peak area and a Peak area, 3.5 hour digest, LF 10 pg/ml plasma, rep 1 (LBL 10081) of 16500 peak area. For the same substance, the Peak area, 3.5 hour digest, LF 10 pg/ml plasma, rep 2 (LBL 10081) was 15300 peak area, the Peak area, 3.5 hour digest, LF 20 pg/ml plasma, rep 1 (LBL 10081) was 24000 peak area and the Peak area, 3.5 hour digest, LF 20 pg/ml plasma, rep 2 (LBL 10081) was 24300 peak area. The Peak area, 3.5 hour digest, LF 50 pg/ml plasma, rep 1 (LBL 10081) was 49700 peak area, the Peak area, 3.5 hour digest, LF 50 pg/ml plasma, rep 2 (LBL 10081) was 48400 peak area and the Peak area, 5 hour digest, LF 5 pg/ml plasma, rep 1 (LBL 10081) was 14800 peak area. For the same substance, the Peak area, 5 hour digest, LF 5 pg/ml plasma, rep 2 (LBL 10081) was 15100 peak area, the Peak area, 5 hour digest, LF 10 pg/ml plasma, rep 1 (LBL 10081) was 22200 peak area and the Peak area, 5 hour digest, LF 10 pg/ml plasma, rep 2 (LBL 10081) was 22400 peak area. The Peak area, 5 hour digest, LF 20 pg/ml plasma, rep 1 (LBL 10081) was 31600 peak area, the Peak area, 5 hour digest, LF 20 pg/ml plasma, rep 2 (LBL 10081) was 34200 peak area and the Peak area, 5 hour digest, LF 50 pg/ml plasma, rep 1 (LBL 10081) was 67200 peak area. It also gave a Peak area, 5 hour digest, LF 50 pg/ml plasma, rep 2 (LBL 10081) of 66100 peak area, a Peak area, overnight digest (RT), LF 5 pg/ml plasma, rep 1 (LBL 10081) of 28500 peak area and a Peak area, overnight digest (RT), LF 5 pg/ml plasma, rep 2 (LBL 10081) of 25300 peak area. The Peak area, overnight digest (RT), LF 10 pg/ml plasma, rep 1 (LBL 10081) was 36500 peak area, the Peak area, overnight digest (RT), LF 10 pg/ml plasma, rep 2 (LBL 10081) was 36000 peak area and the Peak area, overnight digest (RT), LF 20 pg/ml plasma, rep 1 (LBL 10081) was 58200 peak area. For the same substance, the Peak area, overnight digest (RT), LF 20 pg/ml plasma, rep 2 (LBL 10081) was 57600 peak area, the Peak area, overnight digest (RT), LF 50 pg/ml plasma, rep 1 (LBL 10081) was 136000 peak area and the Peak area, overnight digest (RT), LF 50 pg/ml plasma, rep 2 (LBL 10081) was 124000 peak area. For the same substance, the Slope (Peak Area/pg LF), 2 hr digest (Peak Area/pg LF) (LBL 10081) was 553, the Slope (Peak Area/pg LF), 3.5 hr digest (Peak Area/pg LF) (LBL 10081) was 811 and the Slope (Peak Area/pg LF), 5 hr digest (Peak Area/pg LF) (LBL 10081) was 1130. The Slope (Peak Area/pg LF), Overnight digest (RT) (Peak Area/pg LF) (LBL 10081) was 2280, the Substrate RFUs after 5 hrs digest, LF 10 pg/ml in 1:10 diluted plasma (LBL 10081) was 140 RFU and the Substrate RFUs after 5 hrs digest, LF 20 pg/ml in 1:10 diluted plasma (LBL 10081) was 137 RFU. It also gave a Substrate RFUs after 5 hrs digest, LF 50 pg/ml in 1:10 diluted plasma (LBL 10081) of 137 RFU, a Substrate RFUs after 5 hrs digest, LF 100 pg/ml in 1:10 diluted plasma (LBL 10081) of 141 RFU and a Substrate RFUs after 5 hrs digest, LF 200 pg/ml in 1:10 diluted plasma (LBL 10081) of 155 RFU. For the same substance, the Substrate RFUs after 5 hrs digest, LF 500 pg/ml in 1:10 diluted plasma (LBL 10081) was 190 RFU, the Substrate RFUs after 5 hrs digest, LF 1000 pg/ml in 1:10 diluted plasma (LBL 10081) was 256 RFU and the Substrate RFUs after 24 hrs digest, LF 10 pg/ml in 1:10 diluted plasma (LBL 10081) was 147 RFU. For the same substance, the Substrate RFUs after 24 hrs digest, LF 20 pg/ml in 1:10 diluted plasma (LBL 10081) was 149 RFU, the Substrate RFUs after 24 hrs digest, LF 50 pg/ml in 1:10 diluted plasma (LBL 10081) was 152 RFU and the Substrate RFUs after 24 hrs digest, LF 100 pg/ml in 1:10 diluted plasma (LBL 10081) was 161 RFU. It also gave a Substrate RFUs after 24 hrs digest, LF 200 pg/ml in 1:10 diluted plasma (LBL 10081) of 186 RFU, a Substrate RFUs after 24 hrs digest, LF 500 pg/ml in 1:10 diluted plasma (LBL 10081) of 248 RFU and a Substrate RFUs after 24 hrs digest, LF 1000 pg/ml in 1:10 diluted plasma (LBL 10081) of 354 RFU. It also gave a Substrate RFUs, 1 hour, LF 10 pg/ml (LBL 10081) of 89 RFU, a Substrate RFUs, 1 hour, LF 20 pg/ml (LBL 10081) of 87 RFU and a Substrate RFUs, 1 hour, LF 50 pg/ml (LBL 10081) of 88 RFU. For the same substance, the Substrate RFUs, 1 hour, LF 100 pg/ml (LBL 10081) was 88 RFU, the Substrate RFUs, 1 hour, LF 200 pg/ml (LBL 10081) was 92 RFU and the Substrate RFUs, 1 hour, LF 500 pg/ml (LBL 10081) was 97 RFU. The Substrate RFUs, 1 hour, LF 1000 pg/ml (LBL 10081) was 114 RFU, the Substrate RFUs, 2 hours, LF 10 pg/ml (LBL 10081) was 94 RFU and the Substrate RFUs, 2 hours, LF 20 pg/ml (LBL 10081) was 93 RFU. It also gave a Substrate RFUs, 2 hours, LF 50 pg/ml (LBL 10081) of 95 RFU, a Substrate RFUs, 2 hours, LF 100 pg/ml (LBL 10081) of 96 RFU and a Substrate RFUs, 2 hours, LF 200 pg/ml (LBL 10081) of 101 RFU. The Substrate RFUs, 2 hours, LF 500 pg/ml (LBL 10081) was 116 RFU, the Substrate RFUs, 2 hours, LF 1000 pg/ml (LBL 10081) was 148 RFU and the Substrate RFUs, 3 hours, LF 10 pg/ml (LBL 10081) was 98 RFU. The Substrate RFUs, 3 hours, LF 20 pg/ml (LBL 10081) was 99 RFU, the Substrate RFUs, 3 hours, LF 50 pg/ml (LBL 10081) was 100 RFU and the Substrate RFUs, 3 hours, LF 100 pg/ml (LBL 10081) was 103 RFU. For the same substance, the Substrate RFUs, 3 hours, LF 200 pg/ml (LBL 10081) was 111 RFU, the Substrate RFUs, 3 hours, LF 500 pg/ml (LBL 10081) was 131 RFU and the Substrate RFUs, 3 hours, LF 1000 pg/ml (LBL 10081) was 177 RFU. For the same substance, the Substrate RFUs, 4 hours, LF 10 pg/ml (LBL 10081) was 100 RFU, the Substrate RFUs, 4 hours, LF 20 pg/ml (LBL 10081) was 99 RFU and the Substrate RFUs, 4 hours, LF 50 pg/ml (LBL 10081) was 102 RFU. For the same substance, the Substrate RFUs, 4 hours, LF 100 pg/ml (LBL 10081) was 105 RFU, the Substrate RFUs, 4 hours, LF 200 pg/ml (LBL 10081) was 115 RFU and the Substrate RFUs, 4 hours, LF 500 pg/ml (LBL 10081) was 142 RFU. The Substrate RFUs, 4 hours, LF 1000 pg/ml (LBL 10081) was 202 RFU, the Substrate RFUs, 5 hours, LF 10 pg/ml (LBL 10081) was 103 RFU and the Substrate RFUs, 5 hours, LF 20 pg/ml (LBL 10081) was 102 RFU. It also gave a Substrate RFUs, 5 hours, LF 50 pg/ml (LBL 10081) of 106 RFU, a Substrate RFUs, 5 hours, LF 100 pg/ml (LBL 10081) of 111 RFU and a Substrate RFUs, 5 hours, LF 200 pg/ml (LBL 10081) of 125 RFU. For the same substance, the Substrate RFUs, 5 hours, LF 500 pg/ml (LBL 10081) was 157 RFU, the Substrate RFUs, 5 hours, LF 1000 pg/ml (LBL 10081) was 224 RFU and the Substrate RFUs after 5 hrs digest, LF 10 pg/ml in 1:10 diluted plasma (LBL 10097) was 224 RFU. The Substrate RFUs after 5 hrs digest, LF 20 pg/ml in 1:10 diluted plasma (LBL 10097) was 222 RFU, the Substrate RFUs after 5 hrs digest, LF 50 pg/ml in 1:10 diluted plasma (LBL 10097) was 249 RFU and the Substrate RFUs after 5 hrs digest, LF 100 pg/ml in 1:10 diluted plasma (LBL 10097) was 242 RFU. The Substrate RFUs after 5 hrs digest, LF 200 pg/ml in 1:10 diluted plasma (LBL 10097) was 256 RFU, the Substrate RFUs after 5 hrs digest, LF 500 pg/ml in 1:10 diluted plasma (LBL 10097) was 301 RFU and the Substrate RFUs after 5 hrs digest, LF 1000 pg/ml in 1:10 diluted plasma (LBL 10097) was 399 RFU. It also gave a Substrate RFUs after 24 hrs digest, LF 10 pg/ml in 1:10 diluted plasma (LBL 10097) of 227 RFU, a Substrate RFUs after 24 hrs digest, LF 20 pg/ml in 1:10 diluted plasma (LBL 10097) of 223 RFU and a Substrate RFUs after 24 hrs digest, LF 50 pg/ml in 1:10 diluted plasma (LBL 10097) of 245 RFU. The Substrate RFUs after 24 hrs digest, LF 100 pg/ml in 1:10 diluted plasma (LBL 10097) was 258 RFU, the Substrate RFUs after 24 hrs digest, LF 200 pg/ml in 1:10 diluted plasma (LBL 10097) was 286 RFU and the Substrate RFUs after 24 hrs digest, LF 500 pg/ml in 1:10 diluted plasma (LBL 10097) was 379 RFU. The Substrate RFUs after 24 hrs digest, LF 1000 pg/ml in 1:10 diluted plasma (LBL 10097) was 559 RFU.

Reference: US20170114338
